In patent US20160326230A1, “HUMAN RELAXIN ANALOGUE, PHARMACEUTICAL COMPOSITION OF SAME, AND PHARMACEUTICAL APPLICATION OF SAME” (SHANGHAI HENGRUI PHARMACEUTICAL CO., LTD., priority 2013, published 2016):
Positions of bridges follow the written chain, without caps; N, C: chain ends. Chains are numbered I, II in the order given. No end group written: not given here.

Target: the receptor on THP-1 cells
Assay: cell-based or functional assay

- EC50 (ng/ml) of cAMP induced in THP-1 cells (cAMP ELISA): 1.5 ng/mL
B1: recombinant human relaxin analog 800814 (ligand)
chain 1: DSWMEEVIKLCGRDLVRAQIAICGMSTWS
chain 2: DLYSALANKCCHVGCTKRSLARFC
modifications: disulfide I:23-II:24; also: two more disulfides among A10, A11, A15 and B11
